These results are taken from article PMC11289878.

The target in the assay is B-isoform of human insulin receptor (hIR-B) (human) (UniProt P06213).
Chain of UniProt P06213 (P06213 28-1382): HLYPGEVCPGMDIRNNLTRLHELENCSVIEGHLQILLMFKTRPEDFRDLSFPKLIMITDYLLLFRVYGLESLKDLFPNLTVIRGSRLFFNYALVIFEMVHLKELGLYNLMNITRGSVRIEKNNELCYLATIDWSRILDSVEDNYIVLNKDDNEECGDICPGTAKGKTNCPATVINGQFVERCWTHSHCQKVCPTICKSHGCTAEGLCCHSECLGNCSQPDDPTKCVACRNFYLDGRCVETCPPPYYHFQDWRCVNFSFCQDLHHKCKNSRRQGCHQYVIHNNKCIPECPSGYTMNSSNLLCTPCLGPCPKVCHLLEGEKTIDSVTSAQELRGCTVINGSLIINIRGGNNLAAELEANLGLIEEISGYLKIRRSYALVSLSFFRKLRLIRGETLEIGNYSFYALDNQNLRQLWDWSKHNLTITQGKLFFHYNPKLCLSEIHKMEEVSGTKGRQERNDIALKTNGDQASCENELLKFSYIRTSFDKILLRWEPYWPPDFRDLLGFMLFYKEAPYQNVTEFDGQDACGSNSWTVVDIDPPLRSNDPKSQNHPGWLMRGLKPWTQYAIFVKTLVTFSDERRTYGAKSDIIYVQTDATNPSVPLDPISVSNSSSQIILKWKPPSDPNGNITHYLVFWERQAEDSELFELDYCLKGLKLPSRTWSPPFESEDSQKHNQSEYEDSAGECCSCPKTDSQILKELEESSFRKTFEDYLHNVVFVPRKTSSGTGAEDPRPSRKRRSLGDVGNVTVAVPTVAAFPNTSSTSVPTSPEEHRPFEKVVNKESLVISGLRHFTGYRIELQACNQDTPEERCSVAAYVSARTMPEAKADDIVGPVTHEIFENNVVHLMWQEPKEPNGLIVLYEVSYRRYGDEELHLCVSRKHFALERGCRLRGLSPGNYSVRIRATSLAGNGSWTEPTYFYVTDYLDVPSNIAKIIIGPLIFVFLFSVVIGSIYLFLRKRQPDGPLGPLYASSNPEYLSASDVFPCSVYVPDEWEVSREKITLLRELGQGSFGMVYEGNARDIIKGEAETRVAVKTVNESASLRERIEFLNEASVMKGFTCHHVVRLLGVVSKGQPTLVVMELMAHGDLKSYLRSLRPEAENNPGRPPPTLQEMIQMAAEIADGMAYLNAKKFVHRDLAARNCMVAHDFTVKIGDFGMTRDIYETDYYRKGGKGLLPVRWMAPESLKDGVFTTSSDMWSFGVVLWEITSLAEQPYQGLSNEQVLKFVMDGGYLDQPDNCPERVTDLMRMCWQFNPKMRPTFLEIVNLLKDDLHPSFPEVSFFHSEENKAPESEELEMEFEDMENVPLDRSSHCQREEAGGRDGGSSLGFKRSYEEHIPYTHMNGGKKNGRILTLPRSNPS

For LY3209590 (Fc fusion), the EC50 (nM) of insulin receptor Y1158 phosphorylation, HEK293 cells overexpressing hIR-B, 0% HSA is 50 nM; the EC50 (nM) of insulin receptor Y1158 phosphorylation, HEK293 cells overexpressing hIR-B, 1% HSA is 83 nM; the Rel. potency (%) to human insulin standard in the same assay, insulin receptor Y1158 phosphorylation, 0% HSA amounted to 1.4%; the Rel. potency (%) to human insulin standard in the same assay, insulin receptor Y1158 phosphorylation, 1% HSA stood at 1.5%.
